Measurements reported in patent US20230321261A1, “AXL-SPECIFIC ANTIBODY-DRUG CONJUGATES FOR CANCER TREATMENT” (GENMAB A/S, priority 2016, published 2023).
Changes are numbered by the printed parent chain. Names may count otherwise.

B1: IgG1-AXL-148: AXL-specific human IgG1,κ antibody, VH SEQ ID NO:5, VL SEQ ID NO:6, Ig2 domain binding (antibody, listed as Homo sapiens, V domains shown)
VH: EVQLLESGGGLVQPGGSLRLSCAASGFTFSSYAMTWVRQAPGKGLEWVSAISISGGSTFYADSVKGRFTISRDNSKNTLYLQMNSLRAEDTAVYYCRGYSGYVYDAFDFWGQGTMVTVSS
VL: DIQMTQSPSSLSASVGDRVTITCRASQGISNWLAWYQQKPEKAPKSLIYAASSLQSGVPSRFSGSGSGTDFTLTISSLQPEDFATYYCQQYNSYPLTFGGGTKVEIK
B2: IgG1-AXL-726: AXL-specific human IgG1,κ antibody, VH SEQ ID NO:31, VL SEQ ID NO:33, FN2 domain binding (antibody, listed as Homo sapiens, V domains shown)
VH: QVQLQQWGAGLLKPSETLSLTCAIDGGSFSGYYWSWIRQPPGKGLEWIGEISHSGRTNYNPSLKSRVTISIDTSKNQFSLKLSSVAAADTAVYYCARFITMIRGAIITHFDYWGQGALVTVSS
VL: B1 VL with N31S, N92H, L96Y, G100Q, V104L
B3: IgG1-AXL-726-M101L: point mutant of IgG1-AXL-726, VH SEQ ID NO:32, VL SEQ ID NO:33 (antibody, listed as Homo sapiens, V domains shown)
VH: B2 VH with M101L
VL: B1 VL with N31S, N92H, L96Y, G100Q, V104L
B4: IgG1-AXL-148-vcMMAE (conjugate)
VH: B1 VH
VL: B1 VL

Experiments:
[1] = biological target: T1, AXLECDHis (extracellular domain of human AXL) (Homo sapiens, UniProt P30530); assay: Binding affinity by Bio-Layer Interferometry (ForteBio OctetRED384); details: 1:1 model, 30° C.
T1 construct: the extracellular domain (ECD) of human AXL (aa 1-447) with a C-terminal His tag (AXLECDHis); His tag (C); made in house; host or cells: HEK-293F

full length human AXL = biological target: T2, full length human AXL (Homo sapiens, UniProt P30530); assay: Flow cytometry binding to transfected HEK293T cells; details: at least 3 experiments
T2 construct: expression constructs for full length human AXL; expressed in transfected cells; host or cells: HEK293T
Experimental: HEK293T cells were transiently transfected with expression constructs for full length human AXL, human AXL with a cynomolgus monkey extracellular domain (ECD) or human AXL with a mouse ECD (see Example 1). Binding of HuMab-AXL antibodies to these cells was evaluated by flow cytometry. Transfected HEK293 cells were incubated with serial dilutions of AXL-antibodies (final concentration range 0.0024-10 µg/mL) for 30 minutes at 4° C. […] Next, cells were washed twice in PBS/0.1% BSA/0.02% azide, resuspended in 120 µL PBS/0.1% BSA/0.02% azide and analyzed on a FACS Cantoll (BD Biosciences).
(§1) Binding curves were analyzed using non-linear regression (sigmoidal dose-response with variable slope) using GraphPad Prism V5.04 software (GraphPad Software, San Diego, CA, USA).

[2] = biological target: T3, human AXL with a cynomolgus monkey extracellular domain (ECD) (Homo sapiens, UniProt P30530, P441T/S191N/S285L/T105A/T112A/T125N/T443A); assay: as above; details: at least 3 experiments
T3 construct: aa 1-447); human AXL transmembrane and intracellular part (the remainder of human AXL after the ECD; expressed in transfected cells; host or cells: HEK293T

AXL on A431 cells = biological target: T4, AXL on A431 cells (Homo sapiens, UniProt P30530); assay: Antibody binding to A431 cells with or without Gas6 pre-incubation; details: for Antibody binding to A431 cells: EC50 in presence of Gas6 (µg/mL) mean (s.d.) / Antibody binding to A431 cells: Maximal binding in presence of Gas6 (% of binding in absence of Gas6) mean (s.d.): pre-incubation with 10 µg/mL Gas6; for Antibody binding to A431 cells: EC50 w/o Gas6 (µg/mL) mean (s.d.): without Gas6 pre-incubation
T4 construct: AXL-positive A431 cells were incubated; endogenous in cells; host or cells: A431

[3] = biological target: T5, Gas6 binding to AXL on A431 cells (Homo sapiens, UniProt P30530); assay: Gas6 binding to A431 cells pre-incubated with AXL antibodies; details: pre-incubation with 10 µg/mL antibody; control antibody b12
T5 construct: endogenous in cells; host or cells: A431
Experimental: Alternatively, A431 cells were pre-incubated with 10 µg/mL AXL antibodies (15 minutes, 4° C.) to assess if the AXL ligand Gas6 could still bind in presence of AXL antibodies. […] After washing three times in PBS/0.1% BSA/0.02% azide, cells were incubated with mouse anti-Gas6 IgG2a (R&D Systems; cat no. MAB885) at 4° C. for 30 min. After washing three times in PBS/0.1% BSA/0.02% azide, cells were incubated with FITC-labelled goat anti-mouse IgG (Dako, Heverlee, Belgium; cat no. F049702) at 4° C. for 30 min in the dark. Next, cells were washed twice in PBS/0.1% BSA/0.02% azide, resuspended in 120 µL PBS/0.1% BSA/0.02% azide and analyzed on a FACS Cantoll (BD Biosciences).
as §1
Therefore, binding of Gas6 to A431 cells that had been pre-incubated with 10 µg/mL AXL antibodies was tested as described in Example 2.

[4] = biological target: T6, human-mouse chimeric AXL mutants (Homo sapiens, UniProt P30530, A151P/A183V/D170T/D266N/G187S/H193Q/P184T/P188S/R148K/R190H/T149A/T182P/V194T); assay: AXL domain specificity using human-mouse AXL chimeric molecules (flow cytometry); format: binding; details: 1 µg/mL antibody
T6 construct: constructs for expression of various full-length AXL variants were generated; expressed in transfected cells; host or cells: HEK293F

A431 cells [5] = assay: Antibody-dependent cell-mediated cytotoxicity (51Cr release); format: cell-based, human; details: concentrations up to 10 µg/mL; PBMC effector to target ratio 100:1
Experimental: The ability of anti-AXL antibodies to induce ADCC of A431 epidermoid carcinoma cells was determined as explained below. As effector cells, peripheral blood mononuclear cells from healthy volunteers (UMC Utrecht, The Netherlands) were used.
A431 cells were collected (5×10^6 cells) in culture medium (RPMI 1640 culture medium supplemented with 10% fetal calf serum (FSC)), to which 100 µCi ^51Cr (Chromium-51; Amersham Biosciences Europe GmbH, Roosendaal, The Netherlands) had been added, and the mixture was incubated in a 37° C. water bath for 1 hour (hr) while shaking. After washing of the cells (twice in PBS, 1200 rpm, 5 min), the cells were resuspended in RPMI1640/10% FSC and counted by trypan blue exclusion. […]
Peripheral blood mononuclear cells (healthy volunteers, UMC Utrecht, Utrecht, The Netherlands) were isolated from 45 mL of freshly drawn heparin blood by Ficoll (Bio Whittaker; lymphocyte separation medium, cat 17-829E) according to the manufacturer’s instructions. After resuspension of cells in RPMI1640/10% FSC, cells were counted by trypan blue exclusion and diluted to a density of 1×10^7 cells/mL.
50 µl of ^51Cr-labeled targets cells were pipetted into 96-well plates, and 50 µl of antibody were added, diluted in RPMI1640/10% FSC (3-fold dilutions at final concentrations range 0.01-10 µg/mL). […] The percentage specific lysis was calculated as follows: […]

[6] = biological target: T7, human AXL transiently expressed by HEK-293F cells (Homo sapiens, UniProt P30530); assay: Homogeneous antigen specific screening assay (FMAT); format: binding
T7 construct: TH1021-AXL (HEK-293F cells transiently expressing full length human AXL; produced as described above); expressed in transfected cells; host or cells: HEK-293F

PAXF1657 tumors = assay: PAXF1657 pancreas cancer PDX model; format: in vivo, NMRI nu/nu mice; details: for anti-tumor activity in the PAXF1657 model (FIG. 10B, 10C): mouse, in vivo
[7] = biological target: T8, human-mouse chimeric AXL mutants (Homo sapiens, UniProt P30530, A349V/A358V/A407T/A411S/A425P/A431G/C405S/D266N/F350L/G397R/H352R/I340V/K439S/P444R/Q372R/Q387R/Q394R/Q436H/R386T/S398P/S400A/S442P/T343M/T443P/V434L); assay: AXL domain specificity using human-mouse AXL chimeric molecules (flow cytometry); format: binding; details: 1 µg/mL antibody
T8 construct: constructs for expression of various full-length AXL variants were generated; expressed in transfected cells; host or cells: HEK293F

LCLC-103H cells = assay: In vitro cytotoxicity (CellTiter-Glo, 5 days); format: cell-based, human; details: MMAE-conjugated antibodies
MDA-MB-231 cells = assay: In vitro cytotoxicity (CellTiter-Glo, 5 days); format: cell-based, human; details: MMAE-conjugated antibodies
[8] = system: LCLC-103H xenograft tumors; assay: LCLC-103H xenograft model; format: in vivo, SCID mice
Experimental: 5 × 10^6 LCLC-103H (large cell lung carcinoma) tumor cells (obtained from Leibniz-Institut DSMZ-Deutsche Sammlung von Mikroorganismen und Zellkulturen GmbH (DSMZ)) in 200 µL PBS were injected subcutaneously in the right flank of female SCID mice. Starting 14-21 days after tumor cell inoculation, when the average tumor size was >100-200 mm^3 and distinct tumor growth was observed, a single injection with 1 mg/kg (20 µg/mouse) IgG1-AXL-vcMMAE antibodies (as described in Supplementary Example 1) or control (unconjugated IgG1-b12) was given intraperitoneally (100 µL/mouse). Tumor volume was determined at least two times per week. Tumor volumes (mm^3) were calculated from caliper (PLEXX) measurements as: 0.52 × (length) × (width)^2.
(§2) Tumor induction was performed by subcutaneous injection of 5 × 10^6 A431 or LCLC-103H tumor cells (both obtained from Leibniz-Institut - Deutsche Sammlung von Mikroorganismen und Zellkulturen GmbH (DSMZ)) in 200 µL PBS in the right flank of female SCID mice. Treatment was started 14-21 days after tumor cell inoculation, when the average tumor size was >100-200 mm^3 and distinct tumor growth was observed. Mice received a single injection or a total of 4 biweekly intraperitoneal injections with IgG1-AXL-vcMMAE ADCs or control antibody (unconjugated IgG1-b12), as indicated. Tumor volume was determined at least two times per week. Tumor volumes (mm^3) were calculated from caliper (PLEXX) measurements as: 0.52 × (length) × (width)^2.

A431 tumors = assay: A431 xenograft model (high Gas6); format: in vivo, SCID mice; details: 3 mg/kg
Experimental: as §2

A431 cells [9] = details: MMAE-conjugated antibodies, 5 days

Molecule	Binding affinity (OCTET) Kdis [1]	Binding affinity (OCTET) Kon [1]	Binding EC50 (µg/mL) human AXL Average (s.d.) (full length human AXL)	Binding EC50 (µg/mL) cynomolgus AXL Average (s.d.) [2]	Antibody binding to A431 cells: EC50 in presence of Gas6 (µg/mL) mean (s.d.) (AXL on A431 cells)	Antibody binding to A431 cells: Maximal binding in presence of Gas6 (% of binding in absence of Gas6) mean (s.d.) (AXL on A431 cells)	Antibody binding to A431 cells: EC50 w/o Gas6 (µg/mL) mean (s.d.) (AXL on A431 cells)	Gas6 binding to A431 cells: Maximal binding in presence of AXL antibodies (% of binding in presence of control antibody) mean (s.d.) [3]	ADCC in A431 cells (percentage specific lysis) (A431 cells [5])	Maximal binding (Arbitrary units) [6]	anti-tumor activity in the PAXF1657 model (FIG. 10B, 10C) (PAXF1657 tumors)	also measured
B1	0.0044 s⁻¹	230000 M⁻¹ s⁻¹	0.094 (0.059) µg/mL	0.152 (0.080) µg/mL	0.20 (0.30) µg/mL	93 (5) %	0.11 (0.13) µg/mL	106 (7) %	did not induce significant ADCC	3499 Arbitrary units	did not result in anti-tumor activity	binding to hsAXL-mmIg2 [4]: strongly reduced binding
B2	0.00013 s⁻¹	240000 M⁻¹ s⁻¹	0.288 (0.206) µg/mL	0.349 (0.160) µg/mL	0.55 (0.69) µg/mL	97 (10) %	0.32 (0.35) µg/mL	98 (10) %		3154 Arbitrary units		binding to hsAXL-mmFN2 [7]: lost
B3	6.9e-05 s⁻¹		0.184 (0.117) µg/mL	0.250 (0.066) µg/mL					did not induce significant ADCC			
B4											dose-dependent antitumor activity	Cytotoxicity in LCLC-103H cells EC50 (LCLC-103H cells): 0.012 mg/L; Cytotoxicity EC50 (µg/mL) MDA-MB231 (n=2) Mean (MDA-MB-231 cells): 0.012 µg/mL; anti-tumor activity in the LCLC-103H xenograft model ([8]; 3 mg/kg (Example 13, FIG. 14A)): tumor regression; anti-tumor activity in established SC LCLC-103H tumors ([8]; single injection 1 mg/kg intraperitoneally (Example 9)): tumor regression; growth of PAXF1657 tumors compared to the control group (PAXF1657 tumors; 2 mg/kg i.v., day 0): significantly reduced the growth; growth of PAXF1657 tumors (PAXF1657 tumors; 4 mg/kg i.v., day 0): induced tumor regression; anti-tumor activity in the A431 xenograft model (A431 tumors): growth inhibition; Cytotoxicity EC50 (µg/mL) A431 (n=3) Mean (A431 cells [9]): 0.070 µg/mL
